Data taken from patent publication US20240270834A1 (Hoffmann-La Roche, published 2024).

T1: VEGF (UniProt P15692-9 27-147, limits assumed)
T1 sequence (looked up): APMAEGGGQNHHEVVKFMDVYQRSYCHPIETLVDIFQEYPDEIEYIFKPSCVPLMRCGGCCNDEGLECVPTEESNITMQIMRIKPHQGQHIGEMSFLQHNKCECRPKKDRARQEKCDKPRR

T2: angiopoietin-2 (UniProt O15123 68-496, limits assumed)
T2 sequence (looked up): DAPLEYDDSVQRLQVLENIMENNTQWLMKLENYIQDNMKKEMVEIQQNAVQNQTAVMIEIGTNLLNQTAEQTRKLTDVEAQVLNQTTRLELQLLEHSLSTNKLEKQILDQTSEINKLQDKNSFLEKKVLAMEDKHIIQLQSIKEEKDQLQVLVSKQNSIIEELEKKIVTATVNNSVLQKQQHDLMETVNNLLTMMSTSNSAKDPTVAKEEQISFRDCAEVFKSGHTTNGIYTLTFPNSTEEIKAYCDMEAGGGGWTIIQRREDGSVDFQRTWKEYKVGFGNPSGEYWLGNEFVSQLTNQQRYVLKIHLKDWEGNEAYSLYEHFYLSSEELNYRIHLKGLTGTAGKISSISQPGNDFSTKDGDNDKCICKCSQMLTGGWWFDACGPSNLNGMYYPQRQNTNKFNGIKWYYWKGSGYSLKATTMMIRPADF


molecular target: T1, VEGF; assay: cell-based or functional assay

EC50, luciferase assay (reporter gene assay) [nM] | Binder
2.1 | Ophthabody variant VII (bispecific antibody) chain 1: not shown chain 2: EVQLVESGGGLVQPGGSLRLSCAASGYDFTHYGMNWVRQAPGKGLEWVGWINTYTGEPTYAADFKRRFTFSLDTSKSTAYLQMNCLRAEDTAVYYCAKYPYYYGTSHWYFDVWGQGTLVTVSSGGGPREPQVYTLPPCRDELTKNQVSLWCLVKGFYPSDIAVEWESNGQPENNYKTTPPVLDSDGSFFLYSKLTVDKSRWQQGNVFSCSVMHEALCNHYTQKSLSLSGGGDIQLTQSPSSLSASVGDRVTITCSASQDISNYLNWYQQKPGKAPKVLIYFTSSLHSGVPSRFSGSGSGTDFTLTISSLQPEDFATYYCQQYSTVPWTFGQGTKVEIKGS

molecular target: T2, angiopoietin-2; assay: cell-based or functional assay

EC50, kinase receptor activation assay [nM] | Binder
19 | Ophthabody variant III (bispecific antibody) chain 1: not shown chain 2: EVQLVESGGGLVQPGGSLRLSCAASGYDFTHYGMNWVRQAPGKGLEWVGWINTYTGEPTYAADFKRRFTFSLDTSKSTAYLQMNSLRAEDTAVYYCAKYPYYYGTSHWYFDVWGQGTLVTVSSGGGGSPREPQVYTLPPCRDELTKNQVSLWCLVKGFYPSDIAVEWESNGQPENNYKTTPPVLDSDGSFFLYSKLTVDKSRWQQGNVFSCSVMHEALHNHYTQKSLSLSGGGGSDIQLTQSPSSLSASVGDRVTITCSASQDISNYLNWYQQKPGKAPKVLIYFTSSLHSGVPSRFSGSGSGTDFTLTISSLQPEDFATYYCQQYSTVPWTFGQGTKVEIKAS
13 | Ophthabody variant IV (bispecific antibody) chain 1: not shown chain 2: EVQLVESGGGLVQPGGSLRLSCAASGYDFTHYGMNWVRQAPGKGLEWVGWINTYTGEPTYAADFKRRFTFSLDTSKSTAYLQMNSLRAEDTAVYYCAKYPYYYGTSHWYFDVWGQGTLVTVSSGGGGSPREPQVYTLPPCRDELTKNQVSLWCLVKGFYPSDIAVEWESNGQPENNYKTTPPVLDSDGSFFLYSKLTVDKSRWQQGNVFSCSVMHEALHNHYTQKSLSLSGGGGSDIQLTQSPSSLSASVGDRVTITCSASQDISNYLNWYQQKPGKAPKVLIYFTSSLHSGVPSRFSGSGSGTDFTLTISSLQPEDFATYYCQQYSTVPWTFGQGTKVEIKGS
18 | Ophthabody variant II (bispecific antibody) chain 1: not shown chain 2: EVQLVESGGGLVQPGGSLRLSCAASGYDFTHYGMNWVRQAPGKGLEWVGWINTYTGEPTYAADFKRRFTFSLDTSKSTAYLQMNSLRAEDTAVYYCAKYPYYYGTSHWYFDVWGQGTLVTVSSGGGPREPQVYTLPPCRDELTKNQVSLWCLVKGFYPSDIAVEWESNGQPENNYKTTPPVLDSDGSFFLYSKLTVDKSRWQQGNVFSCSVMHEALHNHYTQKSLSLSGGGDIQLTQSPSSLSASVGDRVTITCSASQDISNYLNWYQQKPGKAPKVLIYFTSSLHSGVPSRFSGSGSGTDFTLTISSLQPEDFATYYCQQYSTVPWTFGQGTKVEIKGS
21 | Ophthabody variant I (bispecific antibody) chain 1: not shown chain 2: EVQLVESGGGLVQPGGSLRLSCAASGYDFTHYGMNWVRQAPGKGLEWVGWINTYTGEPTYAADFKRRFTFSLDTSKSTAYLQMNSLRAEDTAVYYCAKYPYYYGTSHWYFDVWGQGTLVTVSSGGGPREPQVYTLPPCRDELTKNQVSLWCLVKGFYPSDIAVEWESNGQPENNYKTTPPVLDSDGSFFLYSKLTVDKSRWQQGNVFSCSVMHEALHNHYTQKSLSLSGGGDIQLTQSPSSLSASVGDRVTITCSASQDISNYLNWYQQKPGKAPKVLIYFTSSLHSGVPSRFSGSGSGTDFTLTISSLQPEDFATYYCQQYSTVPWTFGQGTKVEIKAS
18 | Ophthabody variant VI (bispecific antibody) chain 1: not shown chain 2: EVQLVESGGGLVQPGGSLRLSCAASGYDFTHYGMNWVRQAPGKGLEWVGWINTYTGEPTYAADFKRRFTFSLDTSKSTAYLQMNSLRAEDTAVYYCAKYPYYYGTSHWYFDVWGQGTLVTVSSGPPSREPQVYTLPPCRDELTKNQVSLWCLVKGFYPSDIAVEWESNGQPENNYKTTPPVLDSDGSFFLYSKLTVDKSRWQQGNVFSCSVMHEALHNHYTQKSLSLSPPGDIQLTQSPSSLSASVGDRVTITCSASQDISNYLNWYQQKPGKAPKVLIYFTSSLHSGVPSRFSGSGSGTDFTLTISSLQPEDFATYYCQQYSTVPWTFGQGTKVEIKGS
14 | Ophthabody variant V (bispecific antibody) chain 1: not shown chain 2: EVQLVESGGGLVQPGGSLRLSCAASGYDFTHYGMNWVRQAPGKGLEWVGWINTYTGEPTYAADFKRRFTFSLDTSKSTAYLQMNSLRAEDTAVYYCAKYPYYYGTSHWYFDVWGQGTLVTVSSPGGPREPQVYTLPPCRDELTKNQVSLWCLVKGFYPSDIAVEWESNGQPENNYKTTPPVLDSDGSFFLYSKLTVDKSRWQQGNVFSCSVMHEALHNHYTQKSLSLSGPGDIQLTQSPSSLSASVGDRVTITCSASQDISNYLNWYQQKPGKAPKVLIYFTSSLHSGVPSRFSGSGSGTDFTLTISSLQPEDFATYYCQQYSTVPWTFGQGTKVEIKGS
23 | Ophthabody variant VII (bispecific antibody) chain 1: not shown chain 2: EVQLVESGGGLVQPGGSLRLSCAASGYDFTHYGMNWVRQAPGKGLEWVGWINTYTGEPTYAADFKRRFTFSLDTSKSTAYLQMNCLRAEDTAVYYCAKYPYYYGTSHWYFDVWGQGTLVTVSSGGGPREPQVYTLPPCRDELTKNQVSLWCLVKGFYPSDIAVEWESNGQPENNYKTTPPVLDSDGSFFLYSKLTVDKSRWQQGNVFSCSVMHEALCNHYTQKSLSLSGGGDIQLTQSPSSLSASVGDRVTITCSASQDISNYLNWYQQKPGKAPKVLIYFTSSLHSGVPSRFSGSGSGTDFTLTISSLQPEDFATYYCQQYSTVPWTFGQGTKVEIKGS
